According to patent US6906033 (dated 2005):
Changes are numbered by the printed parent chain. Read-outs that look alike come from different tables or passages of the source.

Assays:
Assay in all cases: enzyme inhibition
[1] = target: T1, human factor XIIa (human, UniProt P00748 20-615, biotinylated with Biotin Ester (Zymed); sites not stated)
T1 chain: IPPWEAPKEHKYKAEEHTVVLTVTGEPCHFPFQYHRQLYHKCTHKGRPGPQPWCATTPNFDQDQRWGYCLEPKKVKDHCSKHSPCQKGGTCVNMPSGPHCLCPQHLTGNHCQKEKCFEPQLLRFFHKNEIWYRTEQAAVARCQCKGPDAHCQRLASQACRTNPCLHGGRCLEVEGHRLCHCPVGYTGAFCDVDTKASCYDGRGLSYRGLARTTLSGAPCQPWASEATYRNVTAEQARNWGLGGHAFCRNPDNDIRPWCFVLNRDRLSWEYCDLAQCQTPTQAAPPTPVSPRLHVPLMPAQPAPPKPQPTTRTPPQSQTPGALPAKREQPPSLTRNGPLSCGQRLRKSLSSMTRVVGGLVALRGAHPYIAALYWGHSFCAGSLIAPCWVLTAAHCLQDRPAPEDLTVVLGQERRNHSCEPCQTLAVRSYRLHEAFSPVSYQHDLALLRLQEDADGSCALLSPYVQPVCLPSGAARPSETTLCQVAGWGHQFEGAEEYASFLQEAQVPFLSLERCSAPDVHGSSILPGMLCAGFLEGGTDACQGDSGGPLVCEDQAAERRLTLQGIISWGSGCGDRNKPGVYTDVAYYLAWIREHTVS

[2] = target: T2, human plasma kallikrein (human, UniProt P03952 20-638)
T2 sequence (P03952 20-638): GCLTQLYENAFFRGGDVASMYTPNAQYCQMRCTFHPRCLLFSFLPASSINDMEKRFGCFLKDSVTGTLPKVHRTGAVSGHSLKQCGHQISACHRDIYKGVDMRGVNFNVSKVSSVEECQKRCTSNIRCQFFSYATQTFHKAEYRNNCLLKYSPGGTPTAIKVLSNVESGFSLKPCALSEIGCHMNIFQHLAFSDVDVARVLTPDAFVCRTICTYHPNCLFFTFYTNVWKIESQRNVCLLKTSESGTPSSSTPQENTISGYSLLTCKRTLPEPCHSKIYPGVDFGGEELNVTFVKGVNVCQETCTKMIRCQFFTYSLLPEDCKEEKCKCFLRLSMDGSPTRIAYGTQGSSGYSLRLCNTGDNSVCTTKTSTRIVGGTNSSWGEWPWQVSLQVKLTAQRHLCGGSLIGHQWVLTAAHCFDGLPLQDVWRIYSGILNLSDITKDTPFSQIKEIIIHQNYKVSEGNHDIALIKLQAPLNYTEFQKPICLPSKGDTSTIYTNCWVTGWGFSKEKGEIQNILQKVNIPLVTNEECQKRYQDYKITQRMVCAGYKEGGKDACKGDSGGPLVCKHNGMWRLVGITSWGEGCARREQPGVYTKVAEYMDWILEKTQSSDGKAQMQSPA

[3] = target: T3, human factor Xa (human, UniProt P00742 41-179; P00742 235-488)
T3 chain 1: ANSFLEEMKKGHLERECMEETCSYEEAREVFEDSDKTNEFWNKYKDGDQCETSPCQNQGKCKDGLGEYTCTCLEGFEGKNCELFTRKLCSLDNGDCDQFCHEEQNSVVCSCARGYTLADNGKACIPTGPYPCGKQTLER
T3 chain 2: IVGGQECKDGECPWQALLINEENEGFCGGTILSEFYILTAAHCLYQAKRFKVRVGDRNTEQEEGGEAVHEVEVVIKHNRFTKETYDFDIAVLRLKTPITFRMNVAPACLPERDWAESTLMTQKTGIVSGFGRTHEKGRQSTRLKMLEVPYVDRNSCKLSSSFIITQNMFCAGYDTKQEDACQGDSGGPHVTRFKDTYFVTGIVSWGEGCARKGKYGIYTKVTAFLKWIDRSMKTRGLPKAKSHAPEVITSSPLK

[4] = target: T2, human plasma kallikrein; remark: listed apart in the source
[5] = target: T3, human factor Xa
[6] = target: T1, human factor XIIa
[7] = target: T1, human factor XIIa
[8] = target: T2, human plasma kallikrein; remark: listed apart in the source
[9] = target: T3, human factor Xa
[10] = target: T1, human factor XIIa
[11] = target: T2, human plasma kallikrein; remark: listed apart in the source

B1: TW118 (protein)
chain: EVCSEQAETGPCRAMISRWYFDVTEGKCAPFFYGGCRGNRNNFDTEEYCMAVCGSAI
- Ki [1]: 13000 nM
- Ki [2]: 6 nM
- Ki [3]: 68 nM

B2: TW122 (protein)
chain: B1 chain with R37G, G38A
- Ki [4]: 32 nM
- Ki [5]: 581 nM

B3: TW6151 (protein)
chain: EVVREVCSEQAETGPCRAMISRWYFDVTEGKCAPFFYGGCEGNRNNFDTEEYCMAVCGSAI
- Ki [6]: 1160 nM
- Ki [4]: 163 nM
- Ki [5]: 954 nM

B4: BG001 (protein)
chain: B3 chain with I20L, E41G
- Ki [7]: 489 nM
- Ki [8]: 38 nM
- Ki [9]: 204 nM

B5: AL302 (protein)
chain: B3 chain with F36G, E41G
- Ki [2]: 39 nM
- Ki [3]: 316 nM

B6: TW6209 (protein)
chain: B3 chain with R22H, E41G
- Ki [1]: 184 nM
- Ki [2]: 81 nM
- Ki [3]: 613 nM

B7: TW6157 (protein)
chain: B3 chain with E41S
- Ki [1]: 511 nM
- Ki [2]: 40 nM
- Ki [3]: 168 nM

B8: TW6174 (protein)
chain: B3 chain with M19L, I20H, E41G
- Ki [6]: 2800 nM

B9: DD105 (protein)
chain: B3 chain with S21W, E41G
- Ki [7]: 198 nM
- Ki [8]: 18 nM
- Ki [9]: 320 nM

B10: DD112 (protein)
chain: B3 chain with M19V, E41G
- Ki [10]: 998 nM
- Ki [11]: 6.8 nM

B11: DD104 (protein)
chain: B3 chain with S21Y, E41G
- Ki [7]: 237 nM
- Ki [8]: 15 nM
- Ki [9]: 345 nM

B12: TW6208 (protein)
chain: B3 chain with A18G, E41G
- Ki [10]: 369 nM

B13: DD103 (protein)
chain: B3 chain with S21F, E41G
- Ki [7]: 2130 nM
- Ki [8]: 17 nM
- Ki [9]: 110 nM

B14: DD128 (protein)
chain: B3 chain with R22L, E41G
- Ki [2]: 44 nM
- Ki [3]: 37 nM

B15: AL301 (protein)
chain: B3 chain with F36L, E41G
- Ki [1]: 1560 nM
- Ki [2]: 216 nM

B16: TW6139 (protein)
chain: B3 chain with E41H
- Ki [6]: 152 nM
- Ki [4]: 19 nM
- Ki [5]: 78 nM

B17: TW6180 (protein)
chain: B3 chain with I20F, E41G
- Ki [7]: 885 nM
- Ki [8]: 70 nM
- Ki [9]: 39 nM

B18: TW6168 (protein)
chain: B3 chain with S21L, E41G
- Ki [7]: 3520 nM
- Ki [8]: 25.8 nM
- Ki [9]: 395 nM

B19: DD101 (protein)
chain: B3 chain with E41D
- Ki [6]: 924 nM
- Ki [4]: 64 nM

B20: TW6142 (protein)
chain: B3 chain with F36V, E41G
- Ki [1]: 7970 nM
- Ki [2]: 18 nM
- Ki [3]: 225 nM

B21: BG032 (protein)
chain: B3 chain with T13S, E41G
- Ki [10]: 731 nM
- Ki [11]: 49 nM

B22: TW6155 (protein)
chain: B3 chain with E41M
- Ki [2]: 11 nM
- Ki [3]: 27 nM

B23: TW6179 (protein)
chain: B3 chain with M19G, E41G
- Ki [10]: 368 nM
- Ki [11]: 78 nM

B24: TW6161 (protein)
chain: B3 chain with E41Y
- Ki [6]: 1510 nM
- Ki [4]: 7.5 nM
- Ki [5]: 8.7 nM

B25: BG031 (protein)
chain: B3 chain with T13V, E41G
- Ki [10]: 498 nM
- Ki [11]: 34 nM

B26: TW6138 (protein)
chain: B3 chain with E41K
- Ki [1]: 921 nM
- Ki [2]: 18 nM
- Ki [3]: 309 nM

B27: DD129 (protein)
chain: B3 chain with M19L, I20F, E41G
- Ki [6]: 1860 nM
- Ki [4]: 3.6 nM
- Ki [5]: 6 nM

B28: TW6140 (protein)
chain: B3 chain with E41N
- Ki [1]: 475 nM
- Ki [2]: 35 nM

B29: TW6153 (protein)
chain: B3 chain with E41I
- Ki [6]: 65 nM
- Ki [4]: 11.2 nM
- Ki [5]: 36 nM

B30: TW6147 (protein)
chain: B3 chain with E41A
- Ki [1]: 1090 nM
- Ki [2]: 35 nM
- Ki [3]: 179 nM

B31: TW6159 (protein)
chain: B3 chain with E41V
- Ki [4]: 17 nM
- Ki [5]: 64 nM

B32: TW6173 (protein)
chain: B3 chain with M19A, I20H, E41G
- Ki [6]: 1430 nM

B33: BG002 (protein)
chain: B3 chain with M19L, I20L, E41G
- Ki [6]: 403 nM
- Ki [4]: 0.98 nM
- Ki [5]: 60 nM

B34: TW6211 (protein)
chain: B3 chain with R22K, E41G
- Ki [1]: 402 nM
- Ki [2]: 184 nM

B35: TW6154 (protein)
chain: B3 chain with E41L
- Ki [1]: 915 nM
- Ki [2]: 11 nM
- Ki [3]: 39 nM

B36: TW6178 (protein)
chain: B3 chain with E41G, G42R
- Ki [6]: 444 nM
- Ki [4]: 16 nM
